Test results from publication PMC10039900, “Characterization of human oxidoreductases involved in aldehyde odorant metabolism” (Scientific Reports, 2023).

Target: the molecule itself
Experiment: crystal structure; sitting drop vapor diffusion at 20 °C, ALDH3A1 2 mg/ml, 18% PEG 3350 in 0.1 M potassium acetate pH 7.5; crystals soaked in mother liquor plus 10 mM octanal; 1.80 Å

B1: aldehyde dehydrogenase family 3 member A1 (ALDH3A1) (enzyme, human)
chain: SKISEAVKRARAAFSSGRTRPLQFRIQQLEALQRLIQEQEQELVGALAADLHKNEWNAYYEEVVYVLEEIEYMIQKLPEWAADEPVEKTPQTQQDELYIHSEPLGVVLVIGTWNYPFNLTIQPMVGAIAAGNSVVLKPSELSENMASLLATIIPQYLDKDLYPVINGGVPETTELLKERFDHILYTGSTGVGKIIMTAAAKHLTPVTLELGGKSPCYVDKNCDLDVACRRIAWGKFMNSGQTCVAPDYILCDPSIQNQIVEKLKKSLKEFYGEDAKKSRDYGRIISARHFQRVMGLIEGQKVAYGGTGDAATRYIAPTILTDVDPQSPVMQEEIFGPVLPIVCVRSLEEAIQFINQREKPLALYMFSSNDKVIKKMIAETSSGGVAANDVIVHITLHSLPFGGVGNSGMGSYHGKKSFETFSHRRSCLVRPLMNDEGLKVRYPPSPAKMTQH
notes: human ALDH3A1, UniProt P30838; Subcloned between NdeI and SacI; The crystal was soaked with 10 mM octanal (a small molecule, not a partner); also called aldehyde dehydrogenase 3A1; Aldehyde dehydrogenase, dimeric NADP-preferring; source: E. coli BL21(DE3), purified (two ammonium sulfate precipitations, two chromatography steps)
binding result: binds
